In US20150011730A1 (UNIVERSITY OF SOUTH CAROLINA, published 2015):
No end group written: not given here. Pyrazole N‑cap, 4‑chlorophenylpyrazole (R1 H, R2 Cl, R3 H, R4 CH3, W N, X N, Y C, Z C) = not defined here

B1: HAKRRLIX5 (peptide)
peptide: HAKRRLIA
HELM: PEPTIDE1{H.A.K.R.R.L.I.[O=C([C@H](CC1CCCC1)N[*:1])[*:2]].[am]}$$$$V2.0; N-terminus assumed
SMILES: CC[C@H](C)[C@H](NC(=O)[C@H](CC(C)C)NC(=O)[C@H](CCCNC(=N)N)NC(=O)[C@H](CCCNC(=N)N)NC(=O)[C@H](CCCCN)NC(=O)[C@H](C)NC(=O)[C@@H](N)Cc1c[nH]cn1)C(=O)N[C@@H](CC1CCCC1)C(N)=O

Experiments:
[1] = molecular target: CDK2/Cyclin A2, full-length recombinant, N-terminal GST tag on both proteins (UniProt P24941 1-298; P20248 1-432); assay: cell-based or functional assay
[2] = molecular target: CDK4/Cyclin D1, full-length recombinant, N-terminal GST tag on both proteins (UniProt P11802 2-303; P24385 1-295); assay: cell-based or functional assay
[3] = molecular target: T1, CDK4/cyclin D1 (as used in the binding assay) (UniProt P11802 1-303; P24385 1-295); assay: FP binding assay
T1 construct: kept apart from the GST-tagged kinase-assay complex m2; also called CDK4/D1

[4] = molecular target: CDK2/cyclin A (as used in the binding assay) (UniProt P24941 1-298; P20248 1-432); assay: FP binding assay
[5] = molecular target: T1, CDK4/cyclin D1 (as used in the binding …); assay: FP binding assay; remark: listed apart in the source

CDK4/Cyclin D1, full-length recombinant, N-terminal GST tag on both proteins, sequence (P11802 2-303, chain 1 of 2): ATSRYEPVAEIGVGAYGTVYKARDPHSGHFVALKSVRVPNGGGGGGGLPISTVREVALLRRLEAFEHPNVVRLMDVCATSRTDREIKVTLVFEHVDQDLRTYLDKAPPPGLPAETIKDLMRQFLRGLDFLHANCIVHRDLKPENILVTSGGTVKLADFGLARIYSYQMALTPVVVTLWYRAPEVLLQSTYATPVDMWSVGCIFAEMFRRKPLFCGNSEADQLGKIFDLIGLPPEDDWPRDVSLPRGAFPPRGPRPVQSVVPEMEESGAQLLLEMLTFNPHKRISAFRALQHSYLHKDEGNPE
CDK4/Cyclin D1, full-length recombinant, N-terminal GST tag on both proteins, sequence (P24385 whole entry, chain 2 of 2): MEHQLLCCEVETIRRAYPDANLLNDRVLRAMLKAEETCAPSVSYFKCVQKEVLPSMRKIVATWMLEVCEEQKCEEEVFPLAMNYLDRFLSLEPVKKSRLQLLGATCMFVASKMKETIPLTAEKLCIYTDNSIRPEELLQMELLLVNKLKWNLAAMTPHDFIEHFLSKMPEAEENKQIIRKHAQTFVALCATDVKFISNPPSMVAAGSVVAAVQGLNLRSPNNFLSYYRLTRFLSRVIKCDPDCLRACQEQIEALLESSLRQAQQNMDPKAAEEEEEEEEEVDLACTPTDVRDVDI

Binder	IC50, kinase assay [1] [µM]	IC50, kinase assay [2] [µM]	fold less active relative to the triazole N capping group [3] [fold]	IC50 [4] [µM]	IC50 [5] [µM]
B1	20	90			
{Pyrazole N‑cap, 4‑chlorophenylpyrazole (R1 H, R2 Cl, R3 H, R4 CH3, W N, X N, Y C, Z C)}-RLIF (reading uncertain; also: cap structure given only by scaffold parameters, also called 4-chlorophenylpyrazole) [SCCP 5765 (Pyrazole N-cap ligated to RLIF)]			≥ 4	33.7	49
